Assay results as given in paper doi:10.1101/2024.07.16.603715.

Molecular target: PTPRD/S (signal of the anti-PTPR blot in BN-PAGE)
Experiment: native gel or EMSA

Work on tetraspanin T178B (natural protein) yielded a stoichiometry N of 1.
